The target of assay [1] is T1, rHuman ErbB2/Fc Chimera, CF (R&D Systems Cat#1129-ER) (human, UniProt P04626 23-652).
T1 construct: Bought recombinant protein; also called human epidermal growth factor 2 receptor; Fc part of the bought chimera not given
Kind of assay: ECL multispot (MSD) assay, antigen spotted on plate; blank spot of this row 184.

Assay [2] addresses T2, rHuman EGF R/Fc Chimera, CF (R&D Systems Cat#344-ER) (human, UniProt P00533 25-645).
T2 construct: Bought recombinant protein; also called epidermal growth factor receptor; Fc part of the bought chimera not given
Described as above.

In assay [3] the target is T3, rHuman HGF R/c-MET/Fc Chimera, CF (R&D Systems Cat#358-MT/CF) (human, UniProt P08581 25-932).
T3 construct: Bought recombinant protein; also called HGF R/Fc; hepatocyte growth factor receptor; Fc part of the bought chimera not given
T3 sequence (P08581 25-932, change not shown): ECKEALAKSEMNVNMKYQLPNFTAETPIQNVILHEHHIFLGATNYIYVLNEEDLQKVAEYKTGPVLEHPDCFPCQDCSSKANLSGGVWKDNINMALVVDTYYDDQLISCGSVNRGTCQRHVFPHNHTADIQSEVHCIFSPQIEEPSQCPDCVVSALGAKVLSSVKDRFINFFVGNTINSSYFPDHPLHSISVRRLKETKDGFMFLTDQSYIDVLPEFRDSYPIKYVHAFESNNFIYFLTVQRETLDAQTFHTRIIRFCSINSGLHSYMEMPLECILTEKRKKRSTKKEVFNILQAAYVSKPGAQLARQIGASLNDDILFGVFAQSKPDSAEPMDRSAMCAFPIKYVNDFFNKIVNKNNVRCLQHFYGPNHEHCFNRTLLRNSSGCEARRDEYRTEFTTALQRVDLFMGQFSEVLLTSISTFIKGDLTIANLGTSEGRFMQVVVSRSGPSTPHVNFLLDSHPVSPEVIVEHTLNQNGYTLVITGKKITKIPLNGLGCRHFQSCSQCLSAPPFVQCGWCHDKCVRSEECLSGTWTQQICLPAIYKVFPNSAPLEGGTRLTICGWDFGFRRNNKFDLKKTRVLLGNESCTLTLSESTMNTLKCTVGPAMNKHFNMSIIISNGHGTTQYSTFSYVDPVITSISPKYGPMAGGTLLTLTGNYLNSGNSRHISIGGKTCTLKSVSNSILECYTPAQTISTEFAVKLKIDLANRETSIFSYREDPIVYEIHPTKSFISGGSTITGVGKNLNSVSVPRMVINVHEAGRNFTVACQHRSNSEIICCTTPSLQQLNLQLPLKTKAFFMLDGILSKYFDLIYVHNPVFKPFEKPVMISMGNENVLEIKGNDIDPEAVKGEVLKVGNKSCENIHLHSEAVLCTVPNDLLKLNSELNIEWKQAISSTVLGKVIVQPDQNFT
The assay is described as above.

The target in assay [4] is T4, rHuman Notch-1/Fc Chimera, CF (R&D Systems Cat#3647-TK) (human, UniProt P46531 19-526).
T4 construct: Bought recombinant protein; Fc part of the bought chimera not given
The assay is described as above.

In assay [5] the target is T5, rHuman CD44/Fc Chimera, CF (R&D Systems Cat#3660-CD) (human, UniProt P16070 21-220).
T5 construct: Bought recombinant protein; Fc part of the bought chimera not given
The assay is described as above.

Assay [6] deals with T6, rHuman IGF-1 sR, (IGF-1 sR), CF (R&D Systems Cat#391-GR) (human, UniProt P08069 31-932).
T6 construct: Bought recombinant soluble receptor; also called insulin-like growth factor-1 soluble receptor
The assay is described as above.

For assay [7], the target named is T7, rHuman P-Cadherin/Fc Chimera, CF (R&D Systems Cat#861-PC) (human, UniProt P22223 108-654).
T7 construct: Bought recombinant protein; Fc part of the bought chimera not given
The assay is described as above.

The target in assay [8] is T8, rHuman Erythropoietin R/Fc Chimera, CF (R&D Systems Cat#963-ER) (human, UniProt P19235 25-250).
T8 construct: Bought recombinant protein; also called EPO R; EPO R/Fc; Fc part of the bought chimera not given
T8 sequence (looked up): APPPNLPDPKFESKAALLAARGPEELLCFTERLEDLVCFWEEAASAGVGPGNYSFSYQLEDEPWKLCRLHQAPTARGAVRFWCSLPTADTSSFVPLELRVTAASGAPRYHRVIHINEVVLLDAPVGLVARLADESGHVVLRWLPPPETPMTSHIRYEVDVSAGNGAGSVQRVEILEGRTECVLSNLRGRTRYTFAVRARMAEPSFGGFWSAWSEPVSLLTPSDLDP
The assay is described as above.

Assay [9] has as its target T9, Recombinant Human DLL4 (R&D Systems Cat#1506-D4/CF) (human, UniProt Q9NR61 27-524).
T9 construct: Bought recombinant protein; also called delta-like protein 4; rHuman DLL4
Described as above.

Assay [10] has as its target T1, rHuman ErbB2/Fc Chimera, CF (R&D …). Kind of assay: ECL multispot (MSD) assay, antigen spotted on plate; blank spot.
The target of assay [11] is T2, rHuman EGF R/Fc Chimera, CF (R&D …). The assay is described as above.
Assay [12] deals with T3, rHuman HGF R/c-MET/Fc Chimera, CF (R&D …). The description is as above.
The target in assay [13] is T4, rHuman Notch-1/Fc Chimera, CF (R&D …). The description is as above.
Assay [14] deals with T5, rHuman CD44/Fc Chimera, CF (R&D Systems …). The assay is described as above.
The target in assay [15] is T6, rHuman IGF-1 sR, (IGF-1 sR), CF (R&D …). The description is as above.
The target in assay [16] is T7, rHuman P-Cadherin/Fc Chimera, CF (R&D …). The description is as above.
Assay [17] concerns the target T8, rHuman Erythropoietin R/Fc Chimera, CF …. The assay is described as above.
For assay [18], the target named is T9, Recombinant Human DLL4 (R&D Systems …). The description is as above.
Assay [19] concerns the target T1, rHuman ErbB2/Fc Chimera, CF (R&D …). The assay is described as follows: ECL multispot (MSD) assay, antigen spotted on plate; blank spot of this row 392.
For assay [20], the target named is T2, rHuman EGF R/Fc Chimera, CF (R&D …). Described as above.
In assay [21] the target is T3, rHuman HGF R/c-MET/Fc Chimera, CF (R&D …). The assay is described as above.
Assay [22] deals with T4, rHuman Notch-1/Fc Chimera, CF (R&D …). The description is as above.
The target of assay [23] is T5, rHuman CD44/Fc Chimera, CF (R&D Systems …). The assay is described as above.
The target of assay [24] is T6, rHuman IGF-1 sR, (IGF-1 sR), CF (R&D …). The description is as above.
Assay [25] concerns the target T7, rHuman P-Cadherin/Fc Chimera, CF (R&D …). The assay is described as above.
The target of assay [26] is T8, rHuman Erythropoietin R/Fc Chimera, CF …. Described as above.
Assay [27] concerns the target T9, Recombinant Human DLL4 (R&D Systems …). Described as above.

B1: Fab VH1-46_IGHD6-6*01_IGHJ1*01 S102A/S103P/S104F/H111F (APFF) & L6_IGKJ1*01 S30A (Fab, V domains shown)
VH: QVQLVQSGAEVKKPGASVKVSCKASGYTFTSYYMHWVRQAPGQGLEWMGIINPSGGSTSYAQKFQGRVTMTRDTSTSTVYMELSSLRSEDTAVYYCAREEYAPFSAEYFQFWGQGTLVTVSS
VL: EIVLTQSPATLSLSPGERATLSCRASQSVASYLAWYQQKPGQAPRLLIYDASNRATGIPARFSGSGSGTDFTLTISSLEPEDFAVYYCQQRSNWPPWTFGQGTKVEIKR
notes: Fab made in E. coli: VH cloned into Plasmid A (CH1, His6 and Flag tags), kappa VL into Plasmid C (kappa CL); also called APFF / S30A
On to B1, for which the ECL signal in [1] was 295; in assay [2], 337; in [3], 311; in [4], 364; in [5], 451; in assay [6] it was 342. The ECL signal in [7] was determined as 317; in assay [8], 475; in assay [9], 187000.

B2: Fab VH1-46_IGHD6-6*01_IGHJ1*01 S102A/S103P/S104F/H111F (APFF) & L6_IGKJ1*01 S30V (Fab, V domains shown)
VH: QVQLVQSGAEVKKPGASVKVSCKASGYTFTSYYMHWVRQAPGQGLEWMGIINPSGGSTSYAQKFQGRVTMTRDTSTSTVYMELSSLRSEDTAVYYCAREEYAPFSAEYFQFWGQGTLVTVSS
VL: EIVLTQSPATLSLSPGERATLSCRASQSVVSYLAWYQQKPGQAPRLLIYDASNRATGIPARFSGSGSGTDFTLTISSLEPEDFAVYYCQQRSNWPPWTFGQGTKVEIKR
notes: Fab made in E. coli: VH cloned into Plasmid A (CH1, His6 and Flag tags), kappa VL into Plasmid C (kappa CL); also called APFF / S30V
Turning to B2, the ECL signal in [10] is 279; in [11], 412; in [12] it was 394; in [13], 294; in assay [14] it was 375; in assay [15], 365. Besides, the ECL signal was determined as 333 in assay [16], 536 in [17] and 141000 in assay [18].

B3: Fab VH1-46_IGHD6-6*01_IGHJ1*01 S102A/S103P/S104F/H111F (APFF) & L6_IGKJ1*01 S30T (Fab, V domains shown)
VH: QVQLVQSGAEVKKPGASVKVSCKASGYTFTSYYMHWVRQAPGQGLEWMGIINPSGGSTSYAQKFQGRVTMTRDTSTSTVYMELSSLRSEDTAVYYCAREEYAPFSAEYFQFWGQGTLVTVSS
VL: EIVLTQSPATLSLSPGERATLSCRASQSVTSYLAWYQQKPGQAPRLLIYDASNRATGIPARFSGSGSGTDFTLTISSLEPEDFAVYYCQQRSNWPPWTFGQGTKVEIKR
notes: Fab made in E. coli: VH cloned into Plasmid A (CH1, His6 and Flag tags), kappa VL into Plasmid C (kappa CL); also called APFF / S30T
As to B3, the ECL signal came to 269 in assay [19]; 383 in assay [20]; 320 in assay [21]; 375 in assay [22]; 521 in [23]; 401 in [24]. In addition, the ECL signal in [25] turned out to be 418; in assay [26], 470; in assay [27], 136000.

For the origin of these results see patent US20120316071A1 (published 2012).
